Experimental data as given in the Immune Epitope Database (IEDB).
pKd: −log10 of the molar value. One block for each sequence: values may come before it.

Assays:
HLA-A*02:01 [1] = assay: IEDB peptide-MHC binding, purified MHC/competitive/fluorescence; filed as Kd, often an IC50 or EC50 that approximates it; ≥ and ≤ were set here for values at or beyond the usual limits of such assays
HLA-A*02:16 = assay: as above
HLA-A*03:01 [2] = assay: as above; conditions: source organism: Vibrio vulnificus CMCP6
HLA-A*23:01 = assay: as above; conditions: source organism: Vibrio vulnificus CMCP6
HLA-A*24:03 [3] = assay: as above; conditions: source organism: Vibrio vulnificus CMCP6
HLA-A*26:01 [4] = assay: as above; conditions: source organism: Vibrio vulnificus CMCP6
HLA-B*15:01 [5] = assay: as above; conditions: source organism: Vibrio vulnificus CMCP6
HLA-B*18:01 = assay: as above; conditions: source organism: Vibrio vulnificus CMCP6
HLA-B*27:03 = assay: as above; conditions: source organism: Vibrio vulnificus CMCP6
HLA-B*46:01 = assay: as above; conditions: source organism: Vibrio vulnificus CMCP6
HLA-B*57:01 = assay: as above; conditions: source organism: Vibrio vulnificus CMCP6
HLA-A*02:03 = assay: as above
HLA-A*02:06 = assay: as above
HLA-A*02:11 = assay: as above
HLA-A*02:12 = assay: as above
HLA-A*02:19 = assay: as above; conditions: source organism: Human immunodeficiency virus 1
HLA-A*69:01 [6] = assay: as above; conditions: source organism: Human immunodeficiency virus 1
HLA-A*01:01 = assay: IEDB peptide-MHC binding, purified MHC/direct/fluorescence; filed as Kd, often an IC50 or EC50 that approximates it; ≥ and ≤ were set here for values at or beyond the usual limits of such assays; conditions: source organism: Pasteurella multocida
HLA-A*02:01 [7] = assay: as above; conditions: source organism: Pasteurella multocida
HLA-A*03:01 [8] = assay: as above; conditions: source organism: Pasteurella multocida
HLA-A*11:01 = assay: as above; conditions: source organism: Pasteurella multocida
HLA-A*24:03 [9] = assay: as above; conditions: source organism: Pasteurella multocida
HLA-A*26:01 [10] = assay: as above; conditions: source organism: Pasteurella multocida
HLA-A*31:01 = assay: as above; conditions: source organism: Pasteurella multocida
HLA-A*69:01 [11] = assay: as above; conditions: source organism: Pasteurella multocida
HLA-B*07:02 = assay: as above; conditions: source organism: Pasteurella multocida
HLA-B*08:01 = assay: as above; conditions: source organism: Pasteurella multocida
HLA-B*15:01 [12] = assay: as above; conditions: source organism: Pasteurella multocida
HLA-B*27:05 = assay: as above; conditions: source organism: Pasteurella multocida
HLA-B*40:01 = assay: as above; conditions: source organism: Pasteurella multocida
HLA-B*58:01 = assay: as above; conditions: source organism: Pasteurella multocida
HLA-A*02:50 = assay: IEDB peptide-MHC binding, purified MHC/competitive/fluorescence; filed as Kd, often an IC50 or EC50 that approximates it; ≥ and ≤ were set here for values at or beyond the usual limits of such assays; conditions: source organism: Pasteurella multocida subsp. multocida str. Pm70
[13] = source organism: Vibrio vulnificus CMCP6
[14] = source organism: Human immunodeficiency virus 1
[15] = source organism: Pasteurella multocida subsp. multocida str. Pm70

Sequence: FGAQMGWPV
- pKd (HLA-A*02:01 [1]; [13]): 8.32
- pKd (HLA-A*02:16; [13]): 8.21
- pKd (HLA-A*03:01 [2]): ≤ 4.70
- pKd (HLA-A*23:01): ≤ 4.70
- pKd (HLA-A*24:03 [3]): ≤ 4.70
- pKd (HLA-A*26:01 [4]): ≤ 4.70
- pKd (HLA-B*15:01 [5]): ≤ 4.70
- pKd (HLA-B*18:01): ≤ 4.70
- pKd (HLA-B*27:03): ≤ 4.70
- pKd (HLA-B*46:01): ≤ 4.70
- pKd (HLA-B*57:01): ≤ 4.70

Sequence: FLGKIWPS
- pKd (HLA-A*02:01 [1]; [14]): 8.49
- pKd (HLA-A*02:03; [14]): ≥ 10.00
- pKd (HLA-A*02:06; [14]): ≥ 10.00
- pKd (HLA-A*02:11; [14]): ≥ 10.00
- pKd (HLA-A*02:12; [14]): ≥ 10.00
- pKd (HLA-A*02:16; [14]): ≥ 10.00
- pKd (HLA-A*02:19): 9.40
- pKd (HLA-A*69:01 [6]): 5.56

Sequence: HLADQLIHQ
- pKd (HLA-A*02:01 [1]; [14]): 5.18
- pKd (HLA-A*02:03; [14]): 6.51
- pKd (HLA-A*02:11; [14]): 7.00
- pKd (HLA-A*02:19): ≤ 4.70
- pKd (HLA-A*69:01 [6]): ≤ 4.70

- pKd (HLA-A*01:01): ≤ 4.70
- pKd (HLA-A*02:01 [7]): 7.29
- pKd (HLA-A*03:01 [8]): ≤ 4.70
- pKd (HLA-A*11:01): ≤ 4.70
- pKd (HLA-A*24:03 [9]): ≤ 4.70
- pKd (HLA-A*26:01 [10]): 7.88
- pKd (HLA-A*31:01): 5.84
- pKd (HLA-A*69:01 [11]): 6.79
- pKd (HLA-B*07:02): ≤ 4.70
- pKd (HLA-B*08:01): ≤ 4.70
- pKd (HLA-B*15:01 [12]): 5.03
- pKd (HLA-B*27:05): ≤ 4.70
- pKd (HLA-B*40:01): ≤ 4.70
- pKd (HLA-B*58:01): ≤ 4.70
- pKd (HLA-A*02:03; [15]): ≥ 10.00
- pKd (HLA-A*02:06; [15]): ≥ 10.00
- pKd (HLA-A*02:11; [15]): ≥ 10.00
- pKd (HLA-A*02:12; [15]): ≥ 10.00
- pKd (HLA-A*02:50): ≥ 10.00
Sequence: LLKDLMPFV
